Blank lines part the entries; values can stand above or below the binder they belong to.
What was measured:
[1] = target: Recombinant human OGG1 (6X-His tagged) (human, UniProt O15527 1-345); assay: cell-based or functional assay
[2] = target: Recombinant human Pol β (6X-His tagged) (human, UniProt P06746 1-335); assay: cell-based or functional assay

Sequence of Recombinant human OGG1 (6X-His tagged) (O15527 whole entry): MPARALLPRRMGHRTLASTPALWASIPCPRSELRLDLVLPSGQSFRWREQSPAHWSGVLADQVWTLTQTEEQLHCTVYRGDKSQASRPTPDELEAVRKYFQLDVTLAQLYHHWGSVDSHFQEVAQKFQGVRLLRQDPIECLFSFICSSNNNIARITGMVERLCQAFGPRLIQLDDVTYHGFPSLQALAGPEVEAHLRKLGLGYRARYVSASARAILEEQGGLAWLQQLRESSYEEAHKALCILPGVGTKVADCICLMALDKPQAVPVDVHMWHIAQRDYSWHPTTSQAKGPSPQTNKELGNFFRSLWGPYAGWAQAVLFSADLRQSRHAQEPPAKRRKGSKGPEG

OGG1 lesion removal and phosphodiester cleavage on an 8-oxo-G substrate, fold increase with purified STN1 (250-1500 nM; value at the highest concentration) [1]: 4.3 fold
Pol β DNA synthesis on a random sequence 66 nt gapped substrate, fold increase with purified STN1 [2]: ~7 fold
Pol β dRP lyase activity, fold increase with purified STN1 (250-1500 nM; value at the highest concentration) [2]: 8 fold
Pol β strand displacement synthesis on a 6-nt gapped substrate, fold increase with purified STN1 [2]: 3 fold
B1: Myc-STN1 (natural protein, human, UniProt Q9H668 1-368, looked up)
chain: MQPGSSRCEEETPSLLWGLDPVFLAFAKLYIRDILDMKESRQVPGVFLYNGHPIKQVDVLGTVIGVRERDAFYSYGVDDSTGVINCICWKKLNTESVSAAPSAARELSLTSQLKKLQETIEQKTKIEIGDTIRVRGSIRTYREEREIHATTYYKVDDPVWNIQIARMLELPTIYRKVYDQPFHSSALEKEEALSNPGALDLPSLTSLLSEKAKEFLMENRVQSFYQQELEMVESLLSLANQPVIHSASSDQVNFKKDTTSKAIHSIFKNAIQLLQEKGLVFQKDDGFDNLYYVTREDKDLHRKIHRIIQQDCQKPNHMEKGCHFLHILACARLSIRPGLSEAVLQQVLELLEDQSDIVSTMEHYYTAF

OGG1 lesion removal and phosphodiester cleavage on an 8-oxo-G substrate, fold increase with purified CTC1 (250-1500 nM; value at the highest concentration) [1]: 3.1 fold
Pol β DNA synthesis on a random sequence 66 nt gapped substrate, fold increase with purified CTC1 [2]: ~7 fold
Pol β dRP lyase activity, fold increase with purified CTC1 (250-1500 nM; value at the highest concentration) [2]: ~7.5 fold
Pol β strand displacement synthesis on a 6-nt gapped substrate, fold increase with purified CTC1 [2]: 3 fold
B2: FLAG-CTC1 (natural protein, human, UniProt Q2NKJ3 1-1217, looked up)
chain: MAAGRAQVPSSEQAWLEDAQVFIQKTLCPAVKEPNVQLTPLVIDCVKTVWLSQGRNQGSTLPLSYSFVSVQDLKTHQRLPCCSHLSWSSSAYQAWAQEAGPNGNPLPREQLLLLGTLTDLSADLEQECRNGSLYVRDNTGVLSCELIDLDLSWLGHLFLFPRWSYLPPARWNSSGEGHLELWDAPVPVFPLTISPGPVTPIPVLYPESASCLLRLRNKLRGVQRNLAGSLVRLSALVKSKQKAYFILSLGRSHPAVTHVSIIVQVPAQLVWHRALRPGTAYVLTELRVSKIRGQRQHVWMTSQSSRLLLLKPECVQELELELEGPLLEADPKPLPMPSNSEDKKDPESLVRYSRLLSYSGAVTGVLNEPAGLYELDGQLGLCLAYQQFRGLRRVMRPGVCLQLQDVHLLQSVGGGTRRPVLAPCLRGAVLLQSFSRQKPGAHSSRQAYGASLYEQLVWERQLGLPLYLWATKALEELACKLCPHVLRHHQFLQHSSPGSPSLGLQLLAPTLDLLAPPGSPVRNAHNEILEEPHHCPLQKYTRLQTPSSFPTLATLKEEGQRKAWASFDPKALLPLPEASYLPSCQLNRRLAWSWLCLLPSAFCPAQVLLGVLVASSHKGCLQLRDQSGSLPCLLLAKHSQPLSDPRLIGCLVRAERFQLIVERDVRSSFPSWKELSMPGFIQKQQARVYVQFFLADALILPVPRPCLHSATPSTPQTDPTGPEGPHLGQSRLFLLCHKEALMKRNFCVPPGASPEVPKPALSFYVLGSWLGGTQRKEGTGWGLPEPQGNDDNDQKVHLIFFGSSVRWFEFLHPGQVYRLIAPGPATPMLFEKDGSSCISRRPLELAGCASCLTVQDNWTLELESSQDIQDVLDANKSLPESSLTDLLSDNFTDSLVSFSAEILSRTLCEPLVASLWMKLGNTGAMRRCVKLTVALETAECEFPPHLDVYIEDPHLPPSLGLLPGARVHFSQLEKRVSRSHNVYCCFRSSTYVQVLSFPPETTISIPLPHIYLAELLQGGQSPFQATASCHIVSVFSLQLFWVCAYCTSICRQGKCTRLGSTCPTQTAISQAIIRLLVEDGTAEAVVTCRNHHVAAALGLCPREWASLLDFVQVPGRVVLQFAGPGAQLESSARVDEPMTMFLWTLCTSPSVLRPIVLSFELERKPSKIVPLEPPRLQRFQCGELPFLTHVNPRLRLSCLSIRESEYSSSLGILASSC

Pol β DNA synthesis on a random sequence 66 nt gapped substrate, fold increase with the CST complex [2]: ~3 fold
Pol β dRP lyase activity, fold increase with the CST complex (7.5-45 nM; value at the highest concentration) [2]: ~10 fold
B3: Human CST complex (CTC1-STN1-TEN1) (complex)
chain 1: MAAGRAQVPSSEQAWLEDAQVFIQKTLCPAVKEPNVQLTPLVIDCVKTVWLSQGRNQGSTLPLSYSFVSVQDLKTHQRLPCCSHLSWSSSAYQAWAQEAGPNGNPLPREQLLLLGTLTDLSADLEQECRNGSLYVRDNTGVLSCELIDLDLSWLGHLFLFPRWSYLPPARWNSSGEGHLELWDAPVPVFPLTISPGPVTPIPVLYPESASCLLRLRNKLRGVQRNLAGSLVRLSALVKSKQKAYFILSLGRSHPAVTHVSIIVQVPAQLVWHRALRPGTAYVLTELRVSKIRGQRQHVWMTSQSSRLLLLKPECVQELELELEGPLLEADPKPLPMPSNSEDKKDPESLVRYSRLLSYSGAVTGVLNEPAGLYELDGQLGLCLAYQQFRGLRRVMRPGVCLQLQDVHLLQSVGGGTRRPVLAPCLRGAVLLQSFSRQKPGAHSSRQAYGASLYEQLVWERQLGLPLYLWATKALEELACKLCPHVLRHHQFLQHSSPGSPSLGLQLLAPTLDLLAPPGSPVRNAHNEILEEPHHCPLQKYTRLQTPSSFPTLATLKEEGQRKAWASFDPKALLPLPEASYLPSCQLNRRLAWSWLCLLPSAFCPAQVLLGVLVASSHKGCLQLRDQSGSLPCLLLAKHSQPLSDPRLIGCLVRAERFQLIVERDVRSSFPSWKELSMPGFIQKQQARVYVQFFLADALILPVPRPCLHSATPSTPQTDPTGPEGPHLGQSRLFLLCHKEALMKRNFCVPPGASPEVPKPALSFYVLGSWLGGTQRKEGTGWGLPEPQGNDDNDQKVHLIFFGSSVRWFEFLHPGQVYRLIAPGPATPMLFEKDGSSCISRRPLELAGCASCLTVQDNWTLELESSQDIQDVLDANKSLPESSLTDLLSDNFTDSLVSFSAEILSRTLCEPLVASLWMKLGNTGAMRRCVKLTVALETAECEFPPHLDVYIEDPHLPPSLGLLPGARVHFSQLEKRVSRSHNVYCCFRSSTYVQVLSFPPETTISIPLPHIYLAELLQGGQSPFQATASCHIVSVFSLQLFWVCAYCTSICRQGKCTRLGSTCPTQTAISQAIIRLLVEDGTAEAVVTCRNHHVAAALGLCPREWASLLDFVQVPGRVVLQFAGPGAQLESSARVDEPMTMFLWTLCTSPSVLRPIVLSFELERKPSKIVPLEPPRLQRFQCGELPFLTHVNPRLRLSCLSIRESEYSSSLGILASSC
chain 2: MQPGSSRCEEETPSLLWGLDPVFLAFAKLYIRDILDMKESRQVPGVFLYNGHPIKQVDVLGTVIGVRERDAFYSYGVDDSTGVINCICWKKLNTESVSAAPSAARELSLTSQLKKLQETIEQKTKIEIGDTIRVRGSIRTYREEREIHATTYYKVDDPVWNIQIARMLELPTIYRKVYDQPFHSSALEKEEALSNPGALDLPSLTSLLSEKAKEFLMENRVQSFYQQELEMVESLLSLANQPVIHSASSDQVNFKKDTTSKAIHSIFKNAIQLLQEKGLVFQKDDGFDNLYYVTREDKDLHRKIHRIIQQDCQKPNHMEKGCHFLHILACARLSIRPGLSEAVLQQVLELLEDQSDIVSTMEHYYTAF
chain 3: MMLPKPGTYYLPWEVSAGQVPDGSTLRTFGRLCLYDMIQSRVTLMAQHGSDQHQVLVCTKLVEPFHAQVGSLYIVLGELQHQQDRGSVVKARVLTCVEGMNLPLLEQAIREQRLYKQERGGSQ

Pol β DNA synthesis on a random sequence 66 nt gapped substrate, fold increase with purified TEN1 [2]: ~3 fold
Pol β dRP lyase activity, fold increase with purified TEN1 (250-1500 nM; value at the highest concentration) [2]: 1.5 fold
B4: FLAG-TEN1 (natural protein)
chain: MMLPKPGTYYLPWEVSAGQVPDGSTLRTFGRLCLYDMIQSRVTLMAQHGSDQHQVLVCTKLVEPFHAQVGSLYIVLGELQHQQDRGSVVKARVLTCVEGMNLPLLEQAIREQRLYKQERGGSQ
